From patent US20240124575A1 (SIMCERE ZAIMING PHARMACEUTICAL, published 2024)
Like-named read-outs stand apart in the source and are kept apart here.

B1: C33B904 hIgG1 (antibody, V domains shown)
VH: EVQLVESGGGLVQPGRSLRLSCAASGFTFDDYAMHWVRQAPGKGLEWVSGIGWSGGSIVYADSVKGRFTISRDNAKNSLYLQMNSLRAEDTALYYCAKDSPYGDFFDYWGQGTLVTVSS
VL: DIVMTQSPDSLAVSLGERATINCKSSQTVFYSSNNKNYLAWYQQKPGQPPKLLISWASTRKSGVPDRFSGSGSGTDFTLTVSSLQAEDVAVYYCQHYYSTPYTFGQGTKLEIKR
notes: intact human IgG1; variable regions from US20190382481A1; also called C33B3904; C331B904
B2: C33B904 (antibody, human IgG1, kappa, V domains shown)
VH: B1 VH
VL: B1 VL
notes: control antibody, intact human IgG1 form; variable regions from US20190382481A1; also called C33B904 hIgG1; C331B904

Key:
[1] = target: T1, human CD33-His (extracellular domain Asp 18-His 259) (human, UniProt P20138 18-259); assay: competitive ELISA vs coated SGN-33 2ug/mL; soluble 25ug/ml
T1 construct: range 18-259; bought protein; also called hCD33-his; human CD33 protein; not shown: His tag
T1 sequence (P20138 18-259 limits assumed): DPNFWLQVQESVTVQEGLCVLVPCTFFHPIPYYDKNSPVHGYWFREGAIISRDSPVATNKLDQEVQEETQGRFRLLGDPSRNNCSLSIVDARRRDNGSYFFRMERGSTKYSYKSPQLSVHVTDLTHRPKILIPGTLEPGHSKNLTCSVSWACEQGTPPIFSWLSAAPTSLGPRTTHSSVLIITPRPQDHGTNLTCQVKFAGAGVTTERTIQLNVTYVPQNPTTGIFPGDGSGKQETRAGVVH
Experimental: (§1) VHH antibodies and control antibodies with known epitopes were subjected to epitope classification with competitive ELISA. ELISA plates were coated with 2 μg/mL antibodies according to the method in Example 5.1; the human CD33-his protein was subjected to a gradient dilution from 30 μg/mL, and EC80 values (Tables 26-27) were calculated. ELISA plates were coated with 2 μg/mL antibodies; after 25 µg/mL of antibodies to be tested were added, a human CD33-his protein having an EC80 concentration corresponding to each of the antibodies to be tested was then added for incubation for 2 h. The plates were washed 5 times with PBS, then HRP-labeled anti-His antibodies (purchased from GenScript, Cat. No. A00612) were added for incubation for 1 h, and the plates were washed 5 times. A TMB substrate was added at 50 μL/well and incubated at room temperature for 10 min, then a stop solution (1.0 M HCl) was added at 50 μL/well. OD_{450 nm} values were read using an ELISA plate reader (Insight, purchased from PerkinElmer), and the competition rate between the antibodies was calculated according to the OD_{450 nm} values using a formula. The results are shown in FIGS. 12A-12B, the higher the value of the competition rate, the closer the epitopes to which two antibodies bind.

[2] = target: T2, human CD33-C2-his (human, UniProt P20138 136-260); assay: ELISA on coated human CD33-C2-his
T2 construct: expressed in HEK293E; also called hCD33-C2-his; human CD33 protein C2-domain; not shown: His tag
T2 sequence (P20138 other isoform, or with tags, fused parts or gaps limits assumed): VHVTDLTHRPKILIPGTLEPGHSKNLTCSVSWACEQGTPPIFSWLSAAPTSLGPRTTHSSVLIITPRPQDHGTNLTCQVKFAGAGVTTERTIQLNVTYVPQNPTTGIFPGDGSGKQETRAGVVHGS
From the text: (§2) Plates were coated with human CD33-V-his (membrane distal end) and human CD33-C2-his (membrane proximal end), respectively, according to the ELISA method in Example 8. The VHH humanized antibodies were classified based on the membrane distal end and the membrane proximal end, as shown in FIGS. 20A-20J and Table 44, which allowed the classification of the VHH humanized antibodies into the following classes: […]

[3] = target: T1, human CD33-His (extracellular domain …); assay: competitive ELISA vs coated S006-NB146-139 3ug/mL; soluble 25ug/ml
[4] = target: T1, human CD33-His (extracellular domain …); assay: competitive ELISA vs coated S006-NB147-225 2ug/mL; soluble 25ug/ml
Experimental: as §1

[5] = target: T2, human CD33-C2-his; assay: ELISA on coated human CD33-C2-his; remark: listed apart in the source
From the text: as §2

[6] = target: T1, human CD33-His (extracellular domain …); assay: competitive ELISA vs coated S006-NB146-16 3ug/mL; soluble 25ug/ml
[7] = target: T1, human CD33-His (extracellular domain …); assay: competitive ELISA vs coated S006-NB146-20 2ug/mL; soluble 25ug/ml
Experimental: as §1

[8] = target: T3, human CD33-his protein (human, UniProt P20138 18-259); assay: competition ELISA, coated human CD33-his, vs Biotin-C33B904 at EC80; antibody 62.50 nM
T3 construct: range 18-259; bought protein; also called hCD33-his; recombinant human CD33-his; not shown: His tag
T3 sequence (P20138 18-259 limits assumed): as the sequence (P20138 18-259 limits assumed) above
Experimental: (§3) ELISA plates were coated with 2 μg/mL human CD33-his protein according to the method in Example 5.1; the Biotin-C331B904 antibody was subjected to a gradient dilution from 15 μg/mL, and EC80 values (0.18 μg/mL) were calculated. ELISA plates were coated with 2 μg/mL human CD33-his protein; starting from 40 μg/mL, the VHH antibodies to be tested were diluted in a 1:2 dilution ratio to obtain seven concentrations and added to the ELISA plates, and then Biotin-C331904 antibodies with the EC80 concentrations were added for incubation for 2 h. The plates were washed 5 times with PBS and then […] (purchased from Sigma, Cat. No. S2438) were added for incubation for 1 h, and the plates were washed 5 times. A TMB substrate was added at 50 μL/well and incubated at room temperature for 10 min, then a stop solution (1.0 M HCl) was added at 50 μL/well. OD_{450 nm} values were read using an ELISA plate reader (Insight, purchased from PerkinElmer). Then, analysis was performed by software (GraphPad Prism8), and data were fitted for curve plotting. The results are shown in FIGS. 13A-13B and Tables 28 and 29.

[9] = target: T3, human CD33-his protein; assay: competition ELISA, coated human CD33-his, vs Biotin-C33B904 at EC80; antibody 500 nM
Experimental: (§4) The plate was sealed with a plastic film and incubated at 4° C. overnight, washed twice with PBS the next day, and a blocking solution [PBS+2% (w/w) BSA] was added for blocking at room temperature for 2 h. The blocking solution was discarded, and VHH-Fc antibody or negative control antibody serially diluted from 100 nM was added at 50 μL/well. After incubation at 37° C. for 2 h, the plate was washed 3 times with PBS. A secondary antibody labeled with HRP (horseradish peroxidase) (purchased from Sigma, Cat. No. A0170) was added. After incubation for 1 h at 37° C., the plate was washed 5 times with PBS. A TMB substrate was added at 50 μL/well. After incubation at room temperature for 10 min, a stop solution (1.0 N HCl) was added at 50 μL/well. The OD450 nm values were read on an ELISA plate reader (Multimode Plate Reader, EnSight, purchased from Perkin Elmer). The assay results for the binding of the VHH-Fc to hCD33-his by ELISA are shown in FIGS. 7A and 7B and Tables 11 and 12. […] The IgG control was hIgG1, and the data in the table are OD450 nm values.
(§5) ELISA plates were coated with 2 μg/mL human CD33-his protein according to the method in Example 5.1; the Biotin-C331B904 antibody was subjected to a gradient dilution from 15 μg/mL, and EC80 values (0.18 μg/mL) were calculated. […] OD_{450 nm} values were read using an ELISA plate reader (Insight, purchased from PerkinElmer). […]

[10] = target: T3, human CD33-his protein; assay: competition ELISA, coated human CD33-his, vs Biotin-C33B904 at EC80; antibody 125.00 nM
Experimental: as §3

[11] = target: T3, human CD33-his protein; assay: competition ELISA, coated human CD33-his, vs Biotin-C33B904 at EC80; antibody 15.63 nM
Experimental: as §4, §5

Binder	inhibition rate [1] [%]	EC50 (read off the curve) [2] [nM]	inhibition rate [3] [%]	inhibition rate [4] [%]	EC50 (read off the curve) [5] [nM]	inhibition rate [6] [%]	inhibition rate [7] [%]	OD450 (Biotin-C33B904 signal) [8]	OD450 (Biotin-C33B904 signal) [9]	OD450 (Biotin-C33B904 signal) [10]	OD450 (Biotin-C33B904 signal) [11]
B1	17	~0.2	101	96	~0.05	100	100	–	–	–	–
B2	–	–	–	–	–	–	–	0.32	0.08	0.13	0.88
